Molecular target: ab1ip_mouse Apbb1ip (UniProt Q8R5A3)
UniProt Q8R5A3, sequence (Q8R5A3 whole entry): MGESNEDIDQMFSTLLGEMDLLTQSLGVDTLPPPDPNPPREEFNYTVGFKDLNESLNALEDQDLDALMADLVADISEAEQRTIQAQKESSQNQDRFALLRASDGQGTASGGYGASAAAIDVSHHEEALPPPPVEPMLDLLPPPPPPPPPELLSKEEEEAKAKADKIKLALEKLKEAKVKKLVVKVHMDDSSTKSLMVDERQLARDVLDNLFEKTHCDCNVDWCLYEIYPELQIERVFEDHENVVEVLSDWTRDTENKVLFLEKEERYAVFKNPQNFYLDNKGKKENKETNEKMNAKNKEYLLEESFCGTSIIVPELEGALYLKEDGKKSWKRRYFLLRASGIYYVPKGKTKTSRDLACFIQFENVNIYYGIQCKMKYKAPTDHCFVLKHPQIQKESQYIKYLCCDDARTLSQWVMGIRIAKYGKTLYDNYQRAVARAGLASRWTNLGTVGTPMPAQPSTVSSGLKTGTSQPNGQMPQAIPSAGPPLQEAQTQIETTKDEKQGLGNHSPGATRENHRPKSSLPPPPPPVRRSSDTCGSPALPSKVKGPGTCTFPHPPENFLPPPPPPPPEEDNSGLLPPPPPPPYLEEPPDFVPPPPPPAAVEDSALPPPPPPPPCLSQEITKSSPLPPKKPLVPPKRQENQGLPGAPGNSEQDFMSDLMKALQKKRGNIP

effect of a mutation on the interaction | Substance
decreasing interaction strength | Talin-1 (Mus musculus), P26039 E1794Y;E1797Y;Q1801Y
decreasing interaction strength | Talin-1 (Mus musculus), P26039 E1794Y;E1797Y
